Measured values as given in patent publication US20220348877A1, “GENERATION OF QUIESCENT CARDIAC FIBROBLASTS FROM HUMAN INDUCED PLURIPOTENT STEM CELLS FOR IN VITRO MODELING OF CARDIAC FIBROSIS” (The Board of Trustees of the Leland Stanford Junior …, priority 2019, published 2022).

Tests used:
primary CFs = assay: In vitro wound-healing assay, primary CFs; type: cell-based, human; conditions: 25 ng/ml, 24-hour observation
Procedure: Human primary skin, cardiac, lung, bladder fibroblast, and brain pericyte cultures. Human primary cardiac fibroblasts were isolated and cultured as follows: a piece of fresh right atrial biopsy was weighed, minced into small pieces (1-2 mm^3), and digested in 6-well peri-dishes as described. Human primary cardiac fibroblasts were grown and maintained in a fibroblast growth medium (C-23025, Promocell) supplemented with 1% penicillin-streptomycin (15140-122, Gibco) in a humidified atmosphere (95% air, 5% CO2) at 37° C. The medium was renewed every 2-3 days. Cells were passaged using standard trypsinization techniques at 80-90% confluency. The same protocol was also used to isolate and culture fibroblasts from human skin and lung tissues. Primary bladder fibroblasts were purchased from Lifeline (FC-0050) and maintained in the same fibroblast growth medium. […]
In vitro wound-healing assay. The migration of human iPSC-CFs and primary CFs was determined using a Cytoselect™ 24-Well Wound Healing Assay Kit (CBA-120, Cell Biolabs). […] The cell-free areas at each time point were measured by Image-Pro Plus (version 6.0, Media Cybernetics). For quantification purposes, the wound area generated at 0 hr was set as S0, the uncovered areas captured at 12 hrs, and 24 hrs were recorded as Si (i=12 or 24). The wound closure rate was then calculated by the following equation: wound closure rate

human iPSC-CFs = assay: In vitro wound-healing assay, iPSC-CFs; type: cell-based; conditions: 25 ng/ml, 24-hour observation
Procedure: In vitro wound-healing assay. The migration of human iPSC-CFs and primary CFs was determined using a Cytoselect™ 24-Well Wound Healing Assay Kit (CBA-120, Cell Biolabs). Briefly, after confluent monolayers of CFs were formed, cells were synchronized in a low serum medium (0.5% FBS) for 24 hrs. After the wound-generating scaffold was removed from each well, cells were washed in PBS to remove residual cells in the wounded area. Cells were treated with vehicle or PDGF-BB (25 ng/ml), and images were captured using a light microscope in identical areas at baseline, 12 hrs, and 24 hrs post-treatment. The cell-free areas at each time point were measured by Image-Pro Plus (version 6.0, Media Cybernetics). For quantification purposes, the wound area generated at 0 hr was set as S0, the uncovered areas captured at 12 hrs, and 24 hrs were recorded as Si (i=12 or 24). The wound closure rate was then calculated by the following equation: wound closure rate

B1: platelet derived growth factor-BB: platelet derived growth factor-BB, migration stimulus (protein, UniProt P01127 82-190, looked up)
Platelet-derived growth …: SLGSLTIAEPAMIAECKTRTEVFEISRRLIDRTNANFLVWPPCVEVQRCSGCCNNRNVQCRPTQVQLRPVQVRKIEIVRKKPIFKKATVTLEDHLACKCETVAAARPVT
Q: What does the source list for B1?
A: cell migration (wound closure) (primary CFs): induced cell migration; cell migration (wound closure) (human iPSC-CFs): induced cell migration
